A word on the Kd: it is the constant that tells how readily two partners part at equilibrium. Lower therefore signals a tighter complex. The koff is a measure of how fast the partners let go of each other. Lower therefore signals a long-lived complex.

Test [1] addresses T1, human SIRP-α v1 D1 domain (human, UniProt P78324 31-149).
T1 construct: biotinylated and captured on avidin in the ELISA; also called human v1
Briefly: SPR, antibody immobilised on GLC chip. An outline of the steps:
(§1)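 On a ProteOn XPR36 biosensor, Protein A-purified antibodies were amine-coupled to a GLC chip at about ~1000 RU after dilution to 80 nM in 10 mM sodium acetate pH 4.5. SIRP analytes at 100, 33, 11, 3.7, 1.2 and 0 nM were then injected one-shot in PBS pH 7.4 containing 0.01% Tween-20 at 25° C, with 90 s of association at 100 μL/min and 1200 s of dissociation. The dissociation constant (KD) was calculated as kd/ka from a global Langmuir fit of double-referenced data.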
(Surface plasmon resonance follows binding to a sensor surface in real time, without labels.)

Test [2] has as its target T2, human SIRP-α v2 D1 domain (human).
T2 construct: biotinylated and captured on avidin in the ELISA; also called human v2
Briefly: SPR, antibody immobilised on GLC chip. The method, boiled down:
as §1

In test [3] the target is T3, human SIRP-α v1 D1 domain (human, UniProt P78324 31-149).
T3 construct: also called human v1; human α v1
Kind of test: SPR, antibody immobilised on GLC chip. The procedure:
(§2) All experiments were performed at 25° C. using a SPR-based ProteOn XPR36 biosensor (BioRad, Inc, Hercules, Calif.) equipped with GLC or NLC sensor chips. […] Purification was carried out by standard Protein A affinity column chromatography and eluted antibodies were stored in PBS buffer.
(§3) For the method using GLC chip, the analytes were injected and flowed over anti-SIRPα antibodies immobilized (˜1000 RUs) on GLC chips using Proteon™ Amine Coupling Kit. For the immobilization step, GLC chip was activated with EDAC/Sulpho-NHS 1:1 (Biorad) diluted 1/100 for 300 s at 25 μL/min. Anti-SIRPα antibodies were diluted to 80 nM concentration in 10 mM sodium acetate buffer pH 4.5 and immobilized to the chip at 30 μL/min for 50 s. Chip was inactivated with ethanolamine for 300 s at 25 μL/min. The analytes (e.g., SIRP-α from different species, SIRP-β, SIRP-γ) were injected in a “one-shot” kinetic mode at nominal concentrations of 100, 33, 11, 3.7, 1.2 and 0 nM. Association times were monitored for 90 s at 100 μL/min, and dissociation times were monitored for 1200 s. The surfaces were regenerated with a 2:1 v/v blend of Pierce IgG elution buffer/4M NaCl.

The target in test [4] is T4, cynomolgus SIRP-α D1 domain (SEQ ID NO:11) (cynomolgus, UniProt Q5TFQ8 30-148 (human entry), limits assumed).
T4 construct: also called cyno1
T4 chain: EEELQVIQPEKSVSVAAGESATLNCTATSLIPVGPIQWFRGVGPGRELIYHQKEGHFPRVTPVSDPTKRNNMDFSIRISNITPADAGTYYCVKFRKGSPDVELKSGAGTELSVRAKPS
Kind of test: SPR, antibody immobilised on GLC chip. The procedure:
as §2, §3

Test [5] deals with T5, human SIRPγ isoform 1 (human, UniProt Q9P1W8 29-147).
T5 construct: also called sirpg; sirp-g
Briefly: SPR, antibody immobilised on GLC chip. The procedure: as §2, §3

For test [6], the target named is T6, human SIRP-α v2 D1 domain (human).
T6 construct: also called human v2; human α v2
Kind of test: SPR, antibody immobilised on GLC chip. The procedure: as §2, §3

Test [7] has as its target T7, C57BL/6 mouse SIRP-α D1 domain (mouse (C57BL/6 strain), UniProt P97797 32-148).
T7 sequence: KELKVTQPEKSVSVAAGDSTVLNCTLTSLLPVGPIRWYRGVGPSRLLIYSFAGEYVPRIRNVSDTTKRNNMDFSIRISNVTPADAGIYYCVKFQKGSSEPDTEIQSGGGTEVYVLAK
Kind of test: SPR. The method, boiled down:
(§4)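 Dissociation rate constants (koff) were measured on a ProteOn XPR36 instrument by Langmuir model fitting. Antibody clones in scFv-Fc format were captured from pre-filtered culture media onto a GLC chip with about 4000 RU of amine-coupled anti-human IgG Fc. SIRP analytes ran in PBS pH 7.4 with 0.01% Tween-20 at 25° C, and the model used was 1:1, applied to data double-referenced against interspot and buffer-blank responses.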

Test [8] concerns the target T8, human SIRPβ isoform 1 (human, UniProt O00241 30-148).
T8 construct: also called SIRPb; sirpb1
Kind of test: SPR. An outline of the steps: as §4

For test [9], the target named is T9, high affinity SIRP-α D1 variant CV1-3.
T9 chain: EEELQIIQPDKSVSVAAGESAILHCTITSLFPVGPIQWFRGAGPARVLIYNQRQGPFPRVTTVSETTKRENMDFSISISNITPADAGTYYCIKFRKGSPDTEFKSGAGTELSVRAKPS
Kind of test: SPR, Langmuir fit. An outline of the steps: as §4

Test [10] deals with T10, human SIRP-α v2 D1 domain (human).
T10 construct: also called human v2
Briefly: SPR, Langmuir fit. An outline of the steps: as §4

Test [11] has as its target T11, cynomolgus SIRP-α D1 domain (cyno1) (cynomolgus monkey, UniProt Q5TFQ8 30-148 (human entry), limits assumed).
T11 chain: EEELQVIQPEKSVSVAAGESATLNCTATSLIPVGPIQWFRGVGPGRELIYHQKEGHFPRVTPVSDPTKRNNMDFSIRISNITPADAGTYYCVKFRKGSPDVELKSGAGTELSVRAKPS
Kind of test: SPR, Langmuir fit. An outline of the steps:
as §4

Test [12] has as its target T12, cynomolgus SIRP-α D1 domain (cyno2) (cynomolgus monkey, UniProt Q5TFQ8 30-148 (human entry), limits assumed).
T12 chain: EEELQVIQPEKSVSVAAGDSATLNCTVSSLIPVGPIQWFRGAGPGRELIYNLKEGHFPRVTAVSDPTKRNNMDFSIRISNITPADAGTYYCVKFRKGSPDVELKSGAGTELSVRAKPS
Kind of test: SPR, Langmuir fit. The method, boiled down: as §4

The target of test [13] is T13, human SIRPγ isoform 1 (human, UniProt Q9P1W8 29-147).
T13 construct: also called SIRPg; sirpg
Briefly: SPR. An outline of the steps: as §4

Test [14] deals with T14, mouse 129 SIRP-α D1 domain (mouse (129 strain), UniProt P97797 32-150).
T14 construct: also called m129
T14 chain: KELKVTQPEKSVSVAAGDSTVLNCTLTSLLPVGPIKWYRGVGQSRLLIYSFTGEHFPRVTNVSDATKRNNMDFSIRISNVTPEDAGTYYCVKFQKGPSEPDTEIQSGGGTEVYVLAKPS
Briefly: SPR. The method, boiled down:
as §4

The target in test [15] is T15, human SIRP-α v1 D1 domain (human, UniProt P78324 31-149).
T15 construct: also called human v1
Briefly: SPR, Langmuir fit. An outline of the steps: as §4

Test [16] has as its target T8, human SIRPβ isoform 1. Kind of test: SPR, Langmuir fit. An outline of the steps:
as §4

T8 sequence (O00241 30-148 limits assumed): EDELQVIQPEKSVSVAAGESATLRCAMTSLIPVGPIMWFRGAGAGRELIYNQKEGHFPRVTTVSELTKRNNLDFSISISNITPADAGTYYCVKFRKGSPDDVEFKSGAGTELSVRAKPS

B1: 119 wt/wt_M34L (antibody, human IgG1, V domains shown)
VH: DVQLLESGGGVVQPGGSLRLSCAASGFSFSNFALTWVRQAPGEGLEWVSTIGSGDTYYADSVKGRFTISRDNSKNTLYLQMNSLRAEDTAVYYCAKDSTVSWSGDFFDYWGLGTLVTVSS
VL: EIVLTQSPATLSVSPGERATFSCRASQNVKNDLAWYQQRPGQAPRLLIYAARIRETGIPERFSGSGSGTEFTLTITSLQSEDFAVYYCQQYYDWPPFTFGGGTKVEIK
notes: human IgG1 with L234A, L235A, G237A, N297A
With B1, the binding result in test [1] and in test [2] was “binds” in each case.

B2: antibody 135 variant mut/wt (antibody, human IgG1, V domains shown)
VH: DVQLVESGGGVVRPGESLRLSCAASGFSFSIYAMSWVRQAPGEGLEWVSTIGADDTYYADSVKGRFTISRDNSKNTLYLQMNSLRAEDTAVYYCAKDSTVGWSGDFFDYWGLGTLVTVSS
VL: EIVLTQSPATLSVSPGERVTLSCRASQNVRSDIAWYQQKPGQAPRLLIYAASSRDTGIPARFSGSGSGTDFTLTISSLQSEDFGVYYCQQYYDWPPFTFGGGTKVEIK
notes: Human IgG1 with L234A/L235A/G237A/N297A; Labels are in the order VL/VH
As for B2, the Kd stood at 0.149 nM in test [3], 0.102 nM in test [4], 0.522 nM with human SIRPγ isoform 1 [5] and 0.0266 nM in test [6].

B3: S213 (scFv, V domains shown)
VH: DVQLVESGGGVVRPGESLRLSCEASGFTFRNYYMTWVRQAPGEGLEWVSTISDTGDTAYYADSVKGRFTISRDNSKNSLYLQMNSLRADDTAIYYCAKSWIWWTFFDYWGLGTLVTVSS
VL: ALTQPASVSANLGGTVEITCSGGNSNHYGWYQQKSPGSAPVTLIYADTNRPSNIPSRFSGSTSGSTTTLTITGVQAEDEAVYYCGGSSTGDGIFGAGTTLTVL
notes: also called clone 213
As to B3, the binding result (in test [7]; in the test with human SIRPβ isoform 1 [8]) was “no binding (tested: Koff > 5 × 10^3 (legend))” in each case. Further, the koff turned out to be 0.00482 s⁻¹ in test [9], 0.000685 s⁻¹ in [10], 0.0026 s⁻¹ in test [11] and 0.00313 s⁻¹ in [12].

B4: S214 (scFv, V domains shown)
VH: DVQLVESEGGVVRPGESLRLSCEASGFTFRNSYMTWVRQAPGEGLEWVSTISDTGDTAYYADSVKGRFTISRDNSKNSLYLQMNSLRAEDTAIYYCAKSWIWWTFFDYWGLGTLVTVSS
VL: ALTQPASVSANLGGTVEITCSGGNSNHYGWYQQKSPGSAPVTLIYADTNRPSNIPSRFSGSTSGSTSTLTITGVQAEDEAVYYCGGSSTGDGIFGAGTTLTVL
Turning to B4, the binding result (in [7]; in the test with human SIRPβ isoform 1 [8]) was “no binding (tested: Koff > 5 × 10^3 (legend))” throughout. Besides, the koff in test [9] worked out at 0.00453 s⁻¹; in [10], 0.000677 s⁻¹; in test [11], 0.00351 s⁻¹; in [12], 0.00271 s⁻¹.

B5: S161 (scFv, V domains shown)
VH: DVQLVESGGGVVRPGESLRLSCAASGFTFSNFAMTWVRQAPGKGPEWVSLVSVTATTYYADSVKGRFTISRDNSKSTLYLQMNSLRAEDTAVYYCAKITWNNLFDYWGLGTLVTVSS
VL: EIVLTQSPGTLSLSPGERATLSCRASQTVGSKLAWYQQKPGQAPRLLIYDSSSRASGIPDRFSGSGSGTDFTLTISSLQSEDSAVYYCQQHNDWPPYTFGGGTKVEIK
notes: scFv-Fc format (VL-linker-VH on human IgG1 Fc)
In the case of B5, the binding result (in test [7]; in the test with human SIRPγ isoform 1 [13]; in [14]) was “no binding (tested: Koff > 5 × 10^3 (legend))” throughout. The koff in test [10] was determined as 0.000348 s⁻¹; in [15], 0.00337 s⁻¹; in the test with human SIRPβ isoform 1 [16], 0.00321 s⁻¹; in test [12], 0.00215 s⁻¹.

The record behind these values is patent US20210363269A1 (ALX ONCOLOGY, published 2021).
